Measured values published in patent US20110301073, “Novel DNA-binding proteins and uses thereof” (Sangamo BioSciences, Inc., published 2011).

Columns and labels:
[1] = molecular target: T1, TALE13 +39 FokI (Xanthomonas axonopodis (engineered)); assay: cleavage_in_vitro; two inverted sites, 16 bp gap; NEB Buffer 2, 37 C; conditions: tags: FLAG, NLS, chain copies: 2
T1 chain: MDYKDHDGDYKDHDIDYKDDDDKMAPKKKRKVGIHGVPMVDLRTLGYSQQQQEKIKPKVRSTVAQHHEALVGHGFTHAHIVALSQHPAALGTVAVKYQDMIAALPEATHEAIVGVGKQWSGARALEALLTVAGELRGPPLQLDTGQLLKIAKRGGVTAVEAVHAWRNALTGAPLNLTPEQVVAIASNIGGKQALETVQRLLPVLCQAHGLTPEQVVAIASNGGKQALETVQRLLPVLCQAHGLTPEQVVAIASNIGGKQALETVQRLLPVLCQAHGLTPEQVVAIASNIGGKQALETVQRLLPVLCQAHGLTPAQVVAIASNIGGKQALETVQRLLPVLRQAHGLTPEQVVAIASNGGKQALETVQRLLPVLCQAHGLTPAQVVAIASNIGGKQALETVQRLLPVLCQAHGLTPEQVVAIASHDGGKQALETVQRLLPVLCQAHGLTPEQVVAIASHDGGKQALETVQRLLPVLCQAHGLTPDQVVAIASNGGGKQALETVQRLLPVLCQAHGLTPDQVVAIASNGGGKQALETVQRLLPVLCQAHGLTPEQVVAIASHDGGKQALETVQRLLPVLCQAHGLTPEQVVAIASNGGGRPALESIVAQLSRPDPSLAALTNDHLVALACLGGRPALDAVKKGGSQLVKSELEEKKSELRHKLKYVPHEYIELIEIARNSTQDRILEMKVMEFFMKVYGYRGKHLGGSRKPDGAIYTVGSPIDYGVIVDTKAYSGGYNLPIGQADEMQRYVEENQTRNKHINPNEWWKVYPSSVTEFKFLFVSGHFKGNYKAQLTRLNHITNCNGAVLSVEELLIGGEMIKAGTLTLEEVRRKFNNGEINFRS
Protocol: (§1) TALE domain fusions were also constructed using Fold cleavage half domains. For these examples, wild type FokI half cleavage domains were used so that for nuclease activity, a homodimer must be formed from two of the fusions. For these fusions, the TALE13 DNA binding domain was fused to each FokI half domain by cloning the TALE DNA binding domain into a plasmid adjacent to FokI-specifying sequence. In addition, various linkers were tested for use between the DNA binding domain and the nuclease domain. Linkers L2 and L8 were used which are as follows: L2=GS (SEQ ID NO:71) and L8=[…] (SEQ ID NO:72). The target sites were cloned into a TOPO2.1 target vector (Invitrogen) with varying gap spacings between each target binding site such that the two were separated from each other by 2 to 22 bp. PCR amplification of an approximately 1 kb region of the target vector was done to generate the target DNAs. The TALE DNA binding domains were also truncated as described previously, and are described using the same nomenclature as described above in Examples 2 and 6. The TALE domain nuclease fusion clones were expressed in the TNT Rabbit Reticulocyte Lysate system by adding 5 μL of water containing 250 nanograms of the nuclease fusion clone plasmid to 20 μL of lysate and incubating at 30° C. for 90 minutes.
(§2) The lysate was then used to cleave the target DNAs as follows: 2.5 μL of lysate were added to a 50 μL reaction containing 50 nanograms of PCR-amplified target DNA and a final Buffer 2 (New England Biolabs) concentration of 1×. The cleavage reaction was for one hour at 37° C., followed by a 20 minute heat inactivation stage at 65° C. The reaction was then centrifuged at high speed to separate the target DNA from the lysate, causing the lysate to condense into a pellet in the reaction well. The DNA-containing supernatant was pipetted off and run on an ethidium bromide-stained agarose gel (Invitrogen) to separate intact target DNA from cleaved target DNA. The agarose gel was then analyzed using AlphaEaseFC (Alpha Innotech) software to measure the amount of target DNA present in the large uncleaved DNA band and the two smaller DNA bands resulting from a single cleavage event of the target DNA. The percentage of cleaved DNA out of the total amount of target DNA loaded into the gel represents the percent cleavage in each reaction.

[2] = molecular target: T2, TALE13 +79 FokI (Xanthomonas axonopodis (engineered)); assay: as above; conditions: tags: FLAG, NLS, chain copies: 2
T2 chain: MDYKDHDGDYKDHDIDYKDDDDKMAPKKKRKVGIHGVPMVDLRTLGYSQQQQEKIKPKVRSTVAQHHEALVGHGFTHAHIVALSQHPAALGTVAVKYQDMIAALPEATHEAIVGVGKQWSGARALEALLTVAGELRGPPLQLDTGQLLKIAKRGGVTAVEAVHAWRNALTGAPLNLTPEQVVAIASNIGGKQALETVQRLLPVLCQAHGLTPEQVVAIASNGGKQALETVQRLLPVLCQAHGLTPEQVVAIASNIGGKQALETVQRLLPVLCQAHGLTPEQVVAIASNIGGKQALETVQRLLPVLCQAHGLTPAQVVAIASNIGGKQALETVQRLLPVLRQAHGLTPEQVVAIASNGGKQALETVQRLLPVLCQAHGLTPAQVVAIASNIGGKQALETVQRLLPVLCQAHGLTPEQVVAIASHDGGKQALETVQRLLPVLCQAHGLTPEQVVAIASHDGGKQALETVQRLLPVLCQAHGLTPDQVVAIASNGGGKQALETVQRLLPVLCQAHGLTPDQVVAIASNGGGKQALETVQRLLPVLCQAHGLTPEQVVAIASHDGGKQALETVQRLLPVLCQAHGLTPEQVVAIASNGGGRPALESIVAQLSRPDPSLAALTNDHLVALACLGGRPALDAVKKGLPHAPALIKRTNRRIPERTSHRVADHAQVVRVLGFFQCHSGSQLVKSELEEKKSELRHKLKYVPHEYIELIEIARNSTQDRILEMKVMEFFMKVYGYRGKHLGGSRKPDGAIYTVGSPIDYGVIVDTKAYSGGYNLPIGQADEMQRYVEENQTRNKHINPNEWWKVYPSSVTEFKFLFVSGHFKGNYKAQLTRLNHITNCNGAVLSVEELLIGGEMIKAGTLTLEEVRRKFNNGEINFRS
Protocol: as §1, §2

B1: TALE13 target (dsDNA)
DNA 1: TATAAATACCTTCT
DNA 2: AGAAGGTATTTATA
activity [1]: 100 % cleavage
activity [2]: 56 % cleavage
